This is an account of results in patent US20240117018A1.

Common to all, as to test: cell-based or functional assay
Assay [1] concerns the target Ce2010_F5 Env pseudovirus (HIV-1).
In assay [2] the target is 1056_10_TA11_1826 Env pseudovirus (HIV-1).
Assay [3] concerns the target HIV-16055-2.3 Env pseudovirus (HIV-1).
In assay [4] the target is TRJO4551.58 Env pseudovirus (HIV-1).

B1: N49P23 (antibody, V domains shown)
VH: QVRLVQSGAGARKTGASMKLSCSTSGYTFTTHHGHFINWVRQARGQGLEWMGWMNPMTGQMNIEGKFQGRVTLTRDIYSDTAYMEMTRLTTGDTGTYYCARGDFGQNYPFHYWGQGSLVIVSS
VL: LSALTQPASVSGSPGQSVTISCSGTNRYLVSWYQQHPDKAPKLIIYDDNKRPSGISDRFSASRPDDTASLTISGLQTGDEATYWCASYERFGGGTRLTVLS
With B1, the IC50 in assay [1] is 1.59 µg/mL; in assay [2], 0.075 µg/mL; in assay [3] it was over 50 µg/mL; in assay [4], 0.016 µg/mL. The IC80 is 11.6 µg/mL in assay [1], 0.483 µg/mL in assay [2], over 50 µg/mL in assay [3] and 0.068 µg/mL in assay [4]. Further, the MPI worked out at 91 in assay [1], 100 in assay [2], 17 in assay [3] and 100 in assay [4].

B2: N49P22 (antibody, V domains shown)
V domain 1: HIQLLQSGPQVKKSGDTVRISCETSGYNFVDSRIHWVRQTPEKRLRWMGWINPLQGGVNYAPEFQGRIRMTRDTFIDTVYVDLSGLTPADTAYYYCARGIDGKSYPFHFWGHGTRVTVFS
V domain 2: RFALTQPASVSGSPGQTITITCAGGSVSWFHFPPGKTPRLIIYESSKRPSGVSPRFSGSQSGSTASLIISGLQSDDEGTYFCSILEFFGRGTLVTVLS
Regarding B2, the IC50 in assay [1] is 2.05 µg/mL; in assay [2], 2.99 µg/mL; in assay [3], 4.66 µg/mL; in assay [4] it was over 50 µg/mL. Moreover, the IC80 was 11.7 µg/mL in assay [1], over 50 µg/mL in assay [2], 39.7 µg/mL in assay [3] and over 50 µg/mL in assay [4]. Further, the MPI in assay [1] amounted to 93; in assay [2], 69; in assay [3], 83; in assay [4], 28.
